Biological target: recombinant murine IFN-α subtype A (murine)
Assay: cell-based or functional assay

Sequence of recombinant murine IFN-α subtype A (murine) (P01573 24-190): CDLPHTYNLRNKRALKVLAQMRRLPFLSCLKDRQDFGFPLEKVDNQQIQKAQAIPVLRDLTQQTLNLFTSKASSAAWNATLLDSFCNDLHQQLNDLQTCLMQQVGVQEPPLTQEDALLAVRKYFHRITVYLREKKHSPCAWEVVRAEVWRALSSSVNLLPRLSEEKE

“D3 immunoglobulin-like domain of vaccinia virus B18 protein, 6xHis tagged, expressed in bacteria (from UniProt P21077 254-353) (receptor)” showed an amount of protein for full IFN neutralization, against B18 of 1.

— patent EP4335864A1
